What was measured:
[1] = system: WI-38 fibroblasts overexpressing R175H p53 (WI38-175); experiment: Crystal violet viability assay; assay type: cell-based; settings: 48 hours; much more prominent than in mNoxa-i control cells
Method: FIGS. 13A and 13B are bar graphs illustrating the effect of various tested peptides on the viability of cells expressing Mut-p53, as determine by crystal violet assay. WI-38 fibroblasts expressing endogenous WT p53 were infected with retroviruses expressing either mouse Noxa shRNA (WI38-m-Noxa-i) as a nonspecific control or the R175H p53 mutant for stable overexpression of mutant p53 (WI38-175). The cells (WI38-m-Noxa-i or WI38-175) were seeded at 3000 cells per well in 96-well plates. Tested peptides were added to the cells. Different concentrations of etoposide (cytotoxic drug, 4′-Demethyl-epipodophyllotoxin 9-[4,6-O—(R)-ethylidene-beta-D-glucopyranoside], 4′-(dihydrogen phosphate) were used as positive control for cell death and as a standard reference curve to assess the effect of tested peptides. 48 hours after treatment, cells were washed with PBS to exclude dead cells and debris, and cells that remained attached to the plate were stained with crystal-violet for 30 minutes. Crystal violet was removed and cells were washed 4 times with PBS to remove residual crystal violet. Then, the stained cells were dissolved in 10% acetic acid and plates were taken for optical density measurement at 595 nM (optimal for crystal violet). The bar graphs of FIGS. 13A and 13B show the optical density reads at 595 nm, which reflect the number of cells in the plate after treatment, normalized to the non-treated (NT) samples.
Cells were cultured in 96 wells plates with 2500-4000 cells/well in 0.1 ml and incubated overnight at 37° C. in order to adhere to the plate. Serial dilutions of different peptides (0.5 μg/ml) were added in 0.1 ml aliquots and the plates incubated for additional 48 h at 37° C. Then medium was removed and cell lysis was determined by staining the cells with crystal violet (0.5%) in methanol/water (1:4, v/v), 50 μl each well, for 10 min, followed by 3 washes with PBS. Afterwards, 10% acetic acid (50 μl) was added to each well and shaken for 10 min. Then, automatic plate reading was performed at 595 nm.
An important indication for the reactivating peptides activity is their effect in-vivo on cancer cells that express Mut-p53. In particular, reactivating peptides that can cause specifically Mut-p53-dependent death of cancer cells, with minimal toxic effects on normal cells are desired. A crystal-violet based viability assay, in which crystal-violet is employed to stain cells that adhere to the plate and therefore the amount of dye is proportional to cell number was used to determine the effect of the various test peptides on Mut-p53-dependent death.
Cells were plated in 96-well plates, at calibrated density that allows them to grow for 48 hours without reaching confluence. Peptides are added 6 hours later. Different concentrations of etoposide (cytotoxic drug) were used as positive control for cell death and as a standard reference curve to assess the effect of tested peptides. 48 hours after treatment, cells were washed with PBS to exclude dead cells and debris, and cells that remained attached to the plate were stained with crystal-violet for 30 minutes. Crystal-violet was removed and cells were washed with PBS 4 times to eliminate remains of crystal-violet. Then, the stained cells were dissolved in 10% acetic acid and plates were taken for optical density measurement at 595 nM (specific to crystal-violet).
FIGS. 13A and 13B illustrate a representative experiment of screening performed on 128 synthesized peptides. In this experiment, WI-38 fibroblasts were used. These cells express endogenous WT p53 and were further infected with a virus expressing either mouse Noxa shRNA, as a nonspecific control or the R175H p53 mutant for stable overexpression of mutant p53. Both of these sub-lines (mNoxa or R175H p53) were seeded at 3000 cells per well and treated as described above. […]

Mut-p53 (R175H p53) [2] = biological target: T1, Mut-p53 (R175H p53) (Homo sapiens, UniProt P04637, R175H); experiment: p53/DNA binding ELISA kit (R&D), binding to p53-RE DNA; assay type: biochemical; settings: H1299-R175H p53 cell extracts, vs background (NT)
T1 construct: a hot spot full length mutant p53 Mut-p53 R175H (R175H p53); expressed in transfected cells; host or cells: H1299 (p53-null) cells stably overexpressing R175H p53; cell extract
Excerpt: A commercial p53/DNA binding kit (R&D) was used, according to manufacturer instructions. Briefly, 96 well plates were coated with anti-p53 antibody overnight. Cell extracts containing p53 were reacted with an oligonucleotide that contains a p53 consensus binding site, labeled with biotin, in the presence or absence (NT) of test peptides. WT p53 is expected to bind this DNA binding site as well as to the antibody coating the test wells of the plate. Excess p53 and oligos are washed away and streptavidin-HRP is used to quantify the amount of oligos in the well, which is proportional to the DNA bound by p53. TMB assay was performed to determine HRP levels (450 nm). The results are presented as relative absorbance (at 450 nm) (Y-Axis) of each tested sample. MCF7 and the H1299-Mut-p53 (ts) A135V cells serve as positive controls for WT p53.
For these experiments, a commercial p53/DNA binding kit of “R&D” (Cat-DYC1355-5 Lot-1273366FA) was used, in accordance with manufacturer guide lines. Briefly, 96 well plates are coated with anti-p53 antibody overnight. Cell extracts containing p53 are reacted with an oligonucleotide that contains a p53 consensus binding site (provided in the kit), labeled with biotin, in the presence or absenc.
e (NT) of test peptides. WT p53 is expected to bind this DNA binding site as well as to the antibody coating the test wells of the plate. Excess p53 and oligos were washed away and streptavidin-HRP was used to quantify the amount of oligos in the well, which is proportional to the DNA bound by p53. TMB assay was performed to determine HRP (ES001-1L-K) levels (450 nm).
To measure the effect of the tested peptides on DNA binding of Mut-p53, a commercial ELISA kit, (R&D Systems DYC1355-5, Lot-1273366FA), was used as a high-throughput assay to quantify p53 activation. This kit uses a 96-well plate format. The kit was used according to manufacturer's instructions. Wells were coated with anti-p53 antibody overnight. Cell extracts containing p53 were reacted with a biotin labeled oligonucleotide containing a p53 consensus binding site (included in the kit). WT p53 is expected to bind this oligo as well as the antibody coating the wells. Excess p53 and oligo were washed away in wash buffer (0.05% Tween 20 in PBS, pH 7.2-7.4; R&D Systems, Catalog #WA126). Then, streptavidin-HRP (R&D Systems, Part 890803, provided in the kit) was added for 15-45 min to quantify the amount of oligo in the well, which is proportional to the DNA bound by p53. If the addition of a peptide to Mut-p53 extracts increases ELISA reading compared to background, this peptide is considered as functionally effective and may be selected for further analysis. […] As with the conformational screening, MCF7 and the H1299-Mut-p53 (ts) A135V cells served as positive controls for WT p53. Extracts were added to the wells coated with αp53-Ab, and after several washing steps, streptavidin-HRP was added for 1 hour, and then plates were washed again and TMB (substrate to HRP) assay was performed.

Mut-p53 (R175H p53) [3] = biological target: T1, Mut-p53 (R175H p53); experiment: Sandwich ELISA for p53 conformation (PAb1620/PAb240 reactivity); assay type: biochemical; settings: extract of H1299 cells overexpressing R175H p53; peptide 50 ng/ml, 2 hours
Method: To measure the conformational effect of the peptides on Mut-p53, a micro-titer plate was coated with either PAb240, PAb1620 or pAb421 (as a positive control and standard for total p53 protein, since the antibody used recognizes both WT and mutant conformations), overnight incubated, washed, blocked, and cell extracts (with or without peptides) were added for an additional 2 hours. After removal of extracts, plates were washed and incubated with the αp53-HRP conjugated Ab for the detection of p53 levels. A TMB (substrate of HRP) assay was performed and optical density was determined at 450 nm. WT p53 served as a positive control for reactivity with PAb1620, and Mut-p53 served as a negative control. The results are presented as the ratio of absorbance between the PAb1620 or PAb240 samples and the control […] sample. MCF7 and H1299-Mut-p53 (ts) A135V (TS) cells were used as positive controls for the WT p53 conformation (1620/240 ratio equals or exceeds 5:1).
96-well plates were coated using 3 different antibodies (1 type of antibody (Ab) in each well): PAb421 recognizes both conformations of p53 and binds to a C-terminus epitope; PAb240 recognizes mutant conformation of p53, binds to epitope within the core domain (amino acids 212-217) (Stephen, C. W. and D. P. Lane, Mutant conformation of p53. Precise epitope mapping using a filamentous phage epitope library. J. Mol. Biol., 1992. 225(3): p. 577-83) which is accessible to the Ab when the protein is partially denatured (for example, when the DBD is mutated); and PAb1620, which recognizes WT conformation of p53, binds to epitope with in the core domain (aa 156, 206-210), formed when folding is in WT conformation (Wang, P. L., F. Salt, and G. Winter, The ‘wild type’ conformation of p53: epitope mapping using hybrid proteins. Oncogene, 2001. 20(18): p. 2318-24).
Wells were incubated overnight (ON) with 100 μl Ab (5 μg/ml) in room temp (RT). The liquid was discarded, and the wells were washed 3 times with Phosphate buffered saline (PBS), 200 μl per each wash. Next, blocking with 200 μl of 5% bovine serum albumin (BSA) diluted in PBS in each well for 1.5 hours at room temperature (RT) was performed. Blocking buffer was discarded, followed by 3 washes in PBS as described above. Samples of mutant and WT p53 proteins (100 μl, 10 μg/ml), together with control peptides pCAP-710 (LPNPPER, SEQ ID NO:328) and pCAP-1220 ([…], SEQ ID NO:368) (5 μg/ml, Sigma Aldrich, or with test peptides 1-153 (5 μg/ml), were incubated for 1.5 hours together, and then added to the wells. Samples were rotated and incubated for 1 hour at RT. Samples were discarded, following 4 washes as described above, using Trisphosphate buffered saline (TPBS). Next, horseradish peroxidase (HRP) conjugated streptavidin p53 antibody (10 μg/ml HAF1355 (R&D)) was added to the wells and incubated at RT for 1 hour. After the plate was washed 3 times in TPBS, TMB substrate solution (50 μl each well, Thermo, (Cat. No. ES001-1L-K)) was added and incubated at 37° c. for 20 min. The reaction was stopped with 2M sulfuric acid (50 μl). The absorbance was measured at 450 nm with a spectrophotometer. Protein concentration was determined by dividing the absorbencies of each sample to the absorbance of Ab 421 samples.
The first screening strategy was based on ELISA. A version of sandwich ELISA was used to examine the effect of the lead test peptides on p53 conformation. To measure the conformational effect of the peptides on Mut-p53, a micro-titer plate was coated with PAb240, PAb1620 or pAb421 (as a positive control), and then the reactivity of p53 to these antibodies was examined. WT p53 served as a positive control for reactivity with PAb1620, and Mut-p53 served as a negative control. To examine the effect of a tested peptide it was added to a solution containing Mut-p53 and change in reactivity to either Ab was tested. […] Several ELISA experiments using different cell extracts were performed. […]

| Sequence | reduction in cell numbers, R175H p53 expressing WI-38 cells [1] | binding of H1299-R175H p53 extracts to p53-RE DNA (Mut-p53 (R175H p53) [2]) | reactivity of R175H Mut-p53 towards PAb1620 and PAb240 (conformational change) (Mut-p53 (R175H p53) [3]) |
| --- | --- | --- | --- |
| ASWQALALYAAGW [pCAP-46] | significant reduction in cell numbers |  |  |
| ATQHHYIK [pCAP-93] |  | elevate the binding of H1299-R175H p53 extracts to p53-RE DNA |  |
| HSSHHHPVHSWN [pCAP-83] |  | elevate the binding of H1299-R175H p53 extracts to p53-RE DNA |  |
| SFILFIRRGRLG [pCAP-60] | significant reduction in cell numbers |  | increased reactivity of R175H Mut-p53 towards PAb1620 and decreased reactivity towards PAb240 |
| TLYLPHWHRH [pCAP-47] | significant reduction in cell numbers |  | increased reactivity of R175H Mut-p53 towards PAb1620 and decreased reactivity towards PAb240 |
| WNHHHSTPHPAH [pCAP-97] | significant reduction in cell numbers | elevate the binding of H1299-R175H p53 extracts to p53-RE DNA |  |
| YPTQGHLR [pCAP-36] | significant reduction in cell numbers |  | increased reactivity of R175H Mut-p53 towards PAb1620 and decreased reactivity towards PAb240 |

Reference: patent US11028127B2, “Peptides capable of reactivating p53 mutants” (Yeda Research and Development Co. Ltd., priority 2013, dated 2021)
